Measurements published in patent US5935840A, “Activated recombinant adenovirus proteinases” (priority 1995, dated 1999).
“Also recorded” adds a separate entry of the source.

Legend:
[1] = test system: Ad2 major core protein precursor, pVII; assay: Assay of adenovirus proteinase activity in crude extracts: cleavage of [35S]-methionine-labeled pVII (SDS-PAGE, autoradiography); type: biochemical, adenovirus type 2
Description: The expression products of the above-described Ad2 and Ad12 proteinase plasmids were tested for their ability to cleave the Ad2 major core protein precursor, pVII, in crude extracts from adenovirus-infected cells. The extracts were obtained from human cells infected with the temperature-sensitive mutant Ad2 strain, H2ts1, which has a defective proteinase. As described below, adenovirus proteinase activity requires the presence of two cofactors. […] The recombinant proteinases were also characterized by peptide sequence analysis of their amino-termini.
Bacterial extracts were incubated with the radiolabeled substrate (pVII). Samples were removed at different times and analyzed by SDS-PAGE and autoradiography. […] Appearance of the processed VII band and concurrent decrease of the precursor pVII band indicates proteinase activity. Radiolabeled proteins of Ad2 virions were run on the gel to indicate the positions of pVII, VII, and other virion components (lane a). Extracts from Ad2 -infected HeLa cells were assayed as a positive control for proteinase activity (lane b).
Adenovirus proteinase activity was monitored by the cleavage of [^35 S]-methionine-labeled major core precursor (pVII) essentially as described (Bhatti and Weber, Biochem. Biophys. Res. Comm. 81: 973-797, (1978)). The proteinase substrate was prepared from Ad2Ad2tsl-infected HeLa cells grown at 39° C. and labeled with [^35 S]-methionine (200 μCi/plate) from approximately 28 to 30 hours after infection. Labeled cultures were harvested, washed twice in Phosphate Buffered Saline (PBS), resuspended in 1.0 ml of 10 mM sodium phosphate buffer, pH 7.4, per plate, and sonicated for 40 seconds using a water-cooled sonicator horn (Branson Sonic Power Co., Danbury, Conn.). The extract was then centrifuged at 12,000×g for 10 minutes, and the pellet was resuspended in 10 mM phosphate buffer.
Extracts of Ad-infected cells, harvested 40 hours after infection at 37° C. were used as a source of viral proteinase. Harvested cultures were washed twice with PBS, resuspended in 10 mM phosphate buffer, frozen and thawed once, and centrifuged at 12,000×g for 10 minutes. Pellets were resuspended in 1.0 ml phosphate buffer, pH 7.4, per 10^6 infected cells and sonicated 4×10 seconds; samples were stored at -70° C. Bacterial extracts were prepared by lysozyme-EDTAtreatment of cultures harvested 2 hours after IPTG induction.
Assays were performed by mixing equal volumes of [^35 S]-labeled substrate and test extract and incubating at 37° C. At different times, 25 μl samples were removed, mixed with 25 μl of SDS Sample Buffer, heated to 90° C., and analyzed by SDS-polyacrylamide gel electrophoresis and autoradiography as described (Anderson et al., J. Virol. 12: 241-252 (1973).
Recombinant proteinase polypeptides were assayed for proteinase activity by incubating whole-cell extracts of BL21 (DE3), pT7AD23K5/BL21(DE3), and pT7AD23k6/BL21(DE3), prepared as described above, with extracts of [^35 S]-methionine-labeled Ad2 virion precursor polypeptides. Incubation of the labeled extract at 37° C. for up to 20 hours, alone or with an extract prepared from uninfected HeLa cells, produced little change in the pattern of labeled polypeptides.

HEP1DBP = assay: Cleavage of artificial protein substrate HEP1DBP (SDS-polyacrylamide gel electrophoresis); type: biochemical; details: incubated with HEP1DBP alone, no added cofactors
Excerpt: Recombinant protein substrates that resemble natural virion precursors, such as pVI, can be produced in E. coli by genetic engineering methods similar to those used for expression of recombinant adenovirus proteinase. The recombinant substrate may have an artificial leader sequence that can be removed by proteinase-mediated cleavage. The leader can be designed to aid in purification of the substrate; thus the recombinant substrate can be produced and purified much more efficiently than natural adenovirus substrates. Recombinant protein substrates also serve as prototypes of potential commercial products, showing that the adenovirus proteinase will remove an artificial leader sequence from a recombinant protein that is not related to any adenovirus protein. The first artificial protein substrate was called HEP1DBP. It consists of a 17 amino acid leader (Met-Ala-Ser-Met-Thr-Gly-His-His-His-His-His-His-Gly-Met-Ser-Gly-Gly-) (SEQ ID NO: 37) attached to the initiating methionine of the 232 amino acid DNA binding protein (DBP), of bacteriophage T7. The T7 DBP is the product of gene 2.5. The recombinant proteinase substrate is produced by induction of a pET expression plasmid called pT7HEP1DBP (also called pT7HIS2) (FIG. 7A and Example 11); the predicted sequence of the expressed substrate is given in Table 1. The leader sequence contains six consecutive histidine residues to permit purification by metal affinity chromatography in a manner analogous to purification of the adenovirus proteinase. Immediately preceding the methionine corresponding to the initiation site of the T7 DBP is the tetra-amino acid element -Met-Ser-Gly-Gly- (SEQ ID NO: 38). This segment corresponds to the proteinase recognition sequence in the adenovirus virion precursor polypeptide pVI. The size of the leader sequence was chosen so that the substrate precursor HEP1DBP, and the predicted major product after cleavage, the T7 DBP, could easily be distinguished by SDS-polyacrylamide gel electrophoresis.
When purified HEP1DBP was incubated with disrupted wild-type adenovirus 2 virions, it was cleaved, as determined from the change in its mobility during SDS-polyacrylamide gel electrophoresis. No cleavage was observed when incubation was with disrupted H2ts1 virions alone.
Plasmid pT7HEP1DBP (5346 bp) is a pET-3 derivative that expresses the […] T7 gene 2.5 protein (a single-stranded DNA binding protein) attached to a 17-amino acid leader sequence (FIG. 19). The 249-amino acid HEP1DBP polypeptide serves as an artificial substrate for the adenovirus EP; the leader peptide, MASMTGHHHHHHGMSGG- (SEQ ID NO: 37), ends with the Ad2 proteinase recognition sequence -MSGG- (SEQ ID NO: 38) [Anderson, C. […]

[2] = Solubility of bacterially expressed proteinases (10,000×g supernatant/pellet of lysed E. coli); type: physicochemical
Description: The 23k5 and 23k6 products were tested for solubility as an indication of protein folding. Induced bacteria were harvested and lysed with lysozyme-EDTA, and 10,000×g supernatants were prepared.
The expressed proteinase polypeptides were then tested for solubility. Induced bacteria were harvested and lysed with lysozyme-EDTA, and 10,000×g supernatants were prepared. In each case, the majority of the proteinase polypeptide was found in the 10,000×g pellet. When pellet fractions were analyzed by SDS-polyacrylamide gel electrophoresis in the absence of a reducing agent, only a small fraction of the proteinase polypeptides entered the stacking gel, showing that most of the bacterially synthesized proteinase was misfolded and crosslinked through disulfide bonds. This finding was true for both pT7AD23K5 products (23k5a and 23k5b) as well as for the 23k6 polypeptide.

[3] = test system: (Leu-Arg-Gly-Gly-NH)2 -rhodamine; assay: Fluorescence assay of proteinase activity of virus and recombinant proteinase preparations; type: biochemical
Excerpt: The nature of the proteinase cofactor(s) was pursued with the aid of the second assay, which utilizes the substrate (Leu-Arg-Gly-Gly-NH)2 -rhodamine. The design of this substrate was based on two facts. (1) It was known that the proteinase present in disrupted Ad2 virions would cleave small peptides with sequence similar to that found at natural cleavage sites in adenovirus virion precursors (Webster et al., 1989). (2) Cleavage of either tetra-peptide sequence from the substituted rhodamine substrate produces a very large increase, up to a 3500-fold, in fluorescence. Under conditions where only a small fraction of the rhodamine substrate is cleaved, the increase in fluorescence is proportional to the amount of proteinase present and to the time of incubation. Thus, the fluorescence assay provides a quantitative method for assessing proteinase activity that is more sensitive convenient and rapid than the gel electrophoresis assay.
Assays were performed in 400 μl of Assay Buffer (50 mM Tris-HCl, pH 7.4, 25 mM NaCl, 10 mM octylglucoside, and 1 mM dithiothreitol). […] When present, the number of disrupted virus particles was 10^10 and the amount of recombinant proteinase was 0.12 mAU280 nm. […] After 30 minutes at 37° C., a 360 μl aliquot of the reaction was added to 340 μl of Assay Buffer minus octylglucoside, and the increase in fluorescence was measured. The excitation wavelength was 492 nm and the emission wavelength was 523 nm, both with a bandwidth of 5 nm. The change in fluorescence, ΔF, is the magnitude of the fluorescence from the sample minus the magnitude of the fluorescence from an identical solution without enzyme.
Disrupted virus was obtained as follows: Twice CsCl-banded virus was dialyzed against 10 mM Tris-HCl, pH 8.0, 1mM EDTA and centrifuged at 100,000×g for 1 hour. The pellet was suspended in 10 mM Tris-HCl, pH 6.8, containing 20% (v/v) glycerol and, after three 10 second bursts of sonication, was stored at -20° C. The fluorogenic substrate was synthesized and purified at BNL by Dr. Walter Mangel, using methods similar to those previously described by Dr. Mangel. These methods are described in two U.S. Patents (U.S. Pat. No. 4,557,862 entitled "Rhodamine derivatives as fluorogenic substrates for proteinases" by Mangel, W. F., Leytus, S., and L. Helhado; issued Dec. 10, 1985; U.S. patent application Ser. No. 780,552; "Novel rhodamine derivatives as fluorogenic substrates" by Mangel, W. F., Leytus, S., and L. Helhado; filing date Sep. 24, 1985) and in other publications by Mangel and co-workers.

| Substance | Stability of processing activity in the bacterial extracts ([1]; 37° C.) | Activity/Conditions ([1]; Induced, log phase) | Time by which virtually all of pVII had been converted to VII ([1]; bacterial extract, 37° C.) [hours] | Proteinase activity (cleavage of pVII) ([1]; extracts of IPTG-induced, log phase cells) | Cleavage of HEP1DBP (HEP1DBP) | Part of recombinant proteinase that folds into a soluble protein ([2]; incubation temperature lowered to 30° at addition of IPTG) | Solubility of expressed proteinase ([2]; induced bacteria lysed with lysozyme-EDTA, 10,000×g) | Rate of substrate hydrolysis by the rEP protein alone ([3]; 8.3 nM rEP protein, 1 μM substrate, no cofactors) | Proteinase activity in fluorescence assay ([3]; complemented with disrupted H2ts1 virus) | Proteinase activity in fluorescence assay ([3]; preparation alone) |
| --- | --- | --- | --- | --- | --- | --- | --- | --- | --- | --- |
| 23K6: recombinant wild-type 204/203 amino acid Ad2 proteinase expressed from pT7AD23k6 in E. coli | about 2 hours | Active | ≤ 2 | significant proteinase activity; also recorded: active | no cleavage | approximately half | majority of the proteinase was found in the insoluble pellet |  |  |  |
| rEP protein: purified recombinant Ad2 proteinase, an activatable proteinase |  |  |  |  |  |  |  | less than 0.014 pmol substrate min^-1 | Activity was obtained | no activity |
